The target of experiment [1] is T1, IL-11 receptor α, fusion protein with the Fc domain of human IgG1 (UniProt Q14626 24-370).
T1 sequence (looked up): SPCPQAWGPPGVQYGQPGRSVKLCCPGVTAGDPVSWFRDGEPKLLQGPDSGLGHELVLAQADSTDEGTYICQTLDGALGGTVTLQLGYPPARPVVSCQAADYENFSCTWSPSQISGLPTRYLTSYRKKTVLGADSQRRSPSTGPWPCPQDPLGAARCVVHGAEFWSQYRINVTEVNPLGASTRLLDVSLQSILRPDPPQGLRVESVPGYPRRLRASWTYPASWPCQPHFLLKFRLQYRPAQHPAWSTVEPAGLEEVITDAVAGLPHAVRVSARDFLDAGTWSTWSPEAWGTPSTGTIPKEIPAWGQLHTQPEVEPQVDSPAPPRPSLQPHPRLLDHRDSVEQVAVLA
Nature of the experiment: SPR.

Experiment [2] has as its target IL-6/IL-6Rα fusion (interleukin and receptor connected with a (GGGGS)3 linker) (UniProt P08887 114-320; P05231 30-212). The experiment is described as follows: ITC.
Experiment [3] concerns the target T2, IL-11/IL-11Rα fusion (interleukin and receptor connected with a (GGGGS)3 linker) (UniProt Q14626 113-318; P20809 23-199).
T2 chain: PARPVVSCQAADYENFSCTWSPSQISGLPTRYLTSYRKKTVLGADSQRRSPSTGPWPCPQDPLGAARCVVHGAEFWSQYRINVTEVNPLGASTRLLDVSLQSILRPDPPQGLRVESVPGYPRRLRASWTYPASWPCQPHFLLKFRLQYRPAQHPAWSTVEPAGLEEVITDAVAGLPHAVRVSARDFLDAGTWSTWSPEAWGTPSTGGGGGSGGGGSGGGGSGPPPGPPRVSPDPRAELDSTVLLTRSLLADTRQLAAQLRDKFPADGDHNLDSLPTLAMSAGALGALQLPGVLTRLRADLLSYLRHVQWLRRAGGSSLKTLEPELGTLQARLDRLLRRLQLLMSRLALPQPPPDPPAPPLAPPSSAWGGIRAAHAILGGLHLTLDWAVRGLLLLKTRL
Nature of the experiment: ITC.

In experiment [4] the target is T3, IL-11 receptor α (amino acids 113-318), the receptor part of the IL-11/IL-11Rα fusion (UniProt Q14626 113-318).
T3 sequence (looked up): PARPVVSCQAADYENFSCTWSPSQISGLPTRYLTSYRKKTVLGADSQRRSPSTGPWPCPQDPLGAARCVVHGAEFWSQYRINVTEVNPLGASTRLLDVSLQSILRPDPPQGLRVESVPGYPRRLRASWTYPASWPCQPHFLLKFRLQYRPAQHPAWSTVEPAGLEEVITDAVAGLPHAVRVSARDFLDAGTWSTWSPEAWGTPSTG
The experiment is described as follows: HDX-MS.

B1: Interleukin-11 (ligand, UniProt P20809 22-199, looked up)
chain: PGPPPGPPRVSPDPRAELDSTVLLTRSLLADTRQLAAQLRDKFPADGDHNLDSLPTLAMSAGALGALQLPGVLTRLRADLLSYLRHVQWLRRAGGSSLKTLEPELGTLQARLDRLLRRLQLLMSRLALPQPPPDPPAPPLAPPSSAWGGIRAAHAILGGLHLTLDWAVRGLLLLKTRL
For the molecule B1, the dH in experiment [1] is 11.2 ± 0.717 kcal/mol.

B2: human glycoprotein 130 (amino acids 24-618) (receptor, UniProt P40189 24-618, looked up)
chain: LLDPCGYISPESPVVQLHSNFTAVCVLKEKCMDYFHVNANYIVWKTNHFTIPKEQYTIINRTASSVTFTDIASLNIQLTCNILTFGQLEQNVYGITIISGLPPEKPKNLSCIVNEGKKMRCEWDGGRETHLETNFTLKSEWATHKFADCKAKRDTPTSCTVDYSTVYFVNIEVWVEAENALGKVTSDHINFDPVYKVKPNPPHNLSVINSEELSSILKLTWTNPSIKSVIILKYNIQYRTKDASTWSQIPPEDTASTRSSFTVQDLKPFTEYVFRIRCMKEDGKGYWSDWSEEASGITYEDRPSKAPSFWYKIDPSHTQGYRTVQLVWKTLPPFEANGKILDYEVTLTRWKSHLQNYTVNATKLTVNLTNDRYLATLTVRNLVGKSDAAVLTIPACDFQATHPVMDLKAFPKDNMLWVEWTTPRESVKKYILEWCVLSDKAPCITDWQQEDGTVHRTYLRGNLAESKCYLITVTPVYADGPGSPESIKAYLKQAPPSKGPTVRTKKVGKNEAVLEWDQLPVDVQNGFIRNYTIFYRTIIGNETAVNVDSSHTEYTLSSLTSDTLYMVRMAAYTDEGGKDGPEFTFTTPKFAQGEI
As to B2, the dH in experiment [2] is -6.69 ± 0.239 kcal/mol; in experiment [3], -12.2 ± 0.239 kcal/mol.

B3: Interleukin-11 (amino acids 23-199), the interleukin part of the IL-11/IL-11Rα fusion (domain or fragment, UniProt P20809 23-199, looked up)
chain: GPPPGPPRVSPDPRAELDSTVLLTRSLLADTRQLAAQLRDKFPADGDHNLDSLPTLAMSAGALGALQLPGVLTRLRADLLSYLRHVQWLRRAGGSSLKTLEPELGTLQARLDRLLRRLQLLMSRLALPQPPPDPPAPPLAPPSSAWGGIRAAHAILGGLHLTLDWAVRGLLLLKTRL
Consider B3, for which, in experiment [4], the binding result is given as “binds”.

(Values after doi:10.1101/2022.07.14.499993 (bioRxiv, 2022).)
